In the supplement of paper PMC12042874 one finds amyloid nucleation score data, which are given here for 139 substances.

± gives the uncertainty stated by the source.

The nature of the data set: amyloid nucleation score (Sup35N fusion, yeast selection) (log enrichment); library NNK1; higher = more nucleation; inactive = no reads after selection. In a few lines: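 Three technical output replicates were used for random libraries. Psi-negative yeast expressing peptides of 20 random codons fused to Sup35N were induced with 100 μM copper sulfate for 24 hours and grown 7 days at 30°C on medium lacking adenine and uracil, and input and output plasmid inserts were Illumina-sequenced, excluding sequences with under 100 input reads. The nucleation score is the DiMSum log enrichment of output over input reads, centred on the mode score of non-aggregating sequences.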
In the case of FCISLFSHWFALW, the amyloid nucleation score stood at 5.72 ± 0.067.

Turning to FCKWCRFDDCTRGYIYFVRR, the amyloid nucleation score was found to be 1.76 ± 0.37.

FCLNGRYECGSRMECEMVRE had an amyloid nucleation score of -0.741 ± 0.39.

For the substance FCNNATSTQGNVFSGLLWTL, the amyloid nucleation score was -0.202 ± 0.27.

Turning to FCNRFRCSGSVRWLREVEYM, the amyloid nucleation score was 0.291 ± 0.46.

FCQLVIFY yielded an amyloid nucleation score of 2.8 ± 0.18.

In the case of FCRFQDR, the amyloid nucleation score was -0.785 ± 0.64.

FDGGKVSILFAFISNP yielded an amyloid nucleation score of 6.252 ± 0.048.

Consider FDGMYNDVRTRNVGARYF, for which the amyloid nucleation score turned out to be 0.552 ± 0.64.

As for FDHSIVKKSQLRGFTVVLRL, the amyloid nucleation score came out at 1.22 ± 0.35.

FDITRGRSTSYLIERRRTWG displayed an amyloid nucleation score of 0.79 ± 0.82.

Consider FDKYLRWFMKTLCNIDNWRW, for which the amyloid nucleation score is -0.233 ± 0.24.

FDSRENETTCAMSEDMTYVV had an amyloid nucleation score of -0.238 ± 0.22.

As to FDVFMRYG, the amyloid nucleation score entry was “inactive”.

FEERFMFYTNIDNLLYPLSA showed an amyloid nucleation score of 0.848 ± 0.42.

Consider FELLMDIDC, for which the amyloid nucleation score is 0.139 ± 0.83.

In turn, FENCHHYGTARFKDLPRSIV displayed an amyloid nucleation score of -0.208 ± 0.66.

For the substance FEQTIISLVSGYFQSSDYWS, the amyloid nucleation score is -0.596 ± 0.78.

FERRCYRVSDHVAQVLHDPT: the amyloid nucleation score was 0.515 ± 0.97.

Substance FESKYNTP had an amyloid nucleation score of 0.41 ± 0.47.

For the substance FESRRVKNGID, the amyloid nucleation score entry is “inactive”.

Substance FEYFCRRDRLTK had an amyloid nucleation score of -0.209 ± 0.25.

In turn, FEYRRNLKCVSFFWSVGINR yielded an amyloid nucleation score of -0.436 ± 0.4.

In the case of FFAFYDVHPLHLGDTTLGGW, the amyloid nucleation score was 3.29 ± 0.14.

FFALVYW displayed an amyloid nucleation score of 0.275 ± 0.29.

In turn, FFASCIRYDSRNCIGNLQLG gave an amyloid nucleation score of 0.149 ± 0.64.

FFIYPWFRMTFERRLDGELG gave an amyloid nucleation score of 1.62 ± 0.27.

FFKGGVNGIFINNGSTFG had an amyloid nucleation score of 4.91 ± 0.067.

On to FFKLKHGNTDRSYIYYVGCA, for which the amyloid nucleation score is -0.01 ± 0.21.

For the substance FFLRESNVGLAQRATMELLD, the amyloid nucleation score worked out at 0.13 ± 1.2.

Substance FFQTLDWV gave an amyloid nucleation score of -1.13 ± 2.4.

FFSYVYGVSACFLVTLLFGP had an amyloid nucleation score of -0.229 ± 0.32.

Substance FFTCNGWAGS showed an amyloid nucleation score of -0.614 ± 0.38.

FFVFSRAHCAQSSLNKKYL displayed an amyloid nucleation score of 0.888 ± 0.3.

The substance FFWCRSRLTLAF showed an amyloid nucleation score of 0.024 ± 0.35.

In turn, FFWRHLESGMGFHKACSHGG yielded an amyloid nucleation score of 0.005 ± 1.7.

As to FFYLIISGMVMLSNPLSRVS, the amyloid nucleation score entry was “inactive”.

With FGCNELNR, the amyloid nucleation score was determined as 0.826 ± 0.5.

As to FGGWVSLRSQKCMRPWRLGG, the amyloid nucleation score was -1.22 ± 1.4.

FGKFKRRRGMSKMNRMEITK had an amyloid nucleation score of -0.841 ± 1.5.

For the substance FGLAGHFYNWNYIYTSSVWF, the amyloid nucleation score is -0.021 ± 0.59.

The substance FGMIFFLLTMALRDVCVRLR showed an amyloid nucleation score of 7.24 ± 0.084.

In turn, FGMKMGMMRVV had an amyloid nucleation score of -0.688 ± 1.2.

FGMSCRVELDSDRARTTPWP: the amyloid nucleation score is 0.181 ± 0.64.

As for FGNGHSRMHHRTLHTKPRAA, the amyloid nucleation score is 0.37 ± 1.1.

FGSDPISCGVWYMCVRGWYG displayed an amyloid nucleation score of 0.108 ± 0.3.

With FGYNFRPHHCGCTRNLNSQM, the amyloid nucleation score turned out to be 0.115 ± 0.29.

FHFWEMFTQEAAPIWRWF yielded an amyloid nucleation score of -0.139 ± 0.75.

FHMAKRLYC yielded an amyloid nucleation score of 0.276 ± 0.46.

Take FHNVFCFSYFT: the amyloid nucleation score is 7.21 ± 0.078.

FHTNMTVSYQTKLVLDRYWN returned an amyloid nucleation score of 3.42 ± 0.14.

As for FIASGPVHLRLYAKFNNFHL, the amyloid nucleation score was determined as 8.643 ± 0.06.

Substance FIATNLSLYGFVYWLLSTTT gave an amyloid nucleation score of 0.414 ± 0.42.

FICVMTRSGQDSSGMLLREG: the amyloid nucleation score was found to be 0.105 ± 0.2.

As for FIELMRGDDLMHRGTLYVLR, the amyloid nucleation score entry was “inactive”.

With FIEQGHYNHTGFGSYGWRF, the amyloid nucleation score worked out at 0.972 ± 0.29.

Turning to FIFVIDTRVLRTLINCPTPS, the amyloid nucleation score is -0.047 ± 0.36.

In the case of FIGAFRTTHSAGLLTDRMVL, the amyloid nucleation score worked out at 7.851 ± 0.057.

Consider FIGGLHMALYDYPVEGSALA, for which the amyloid nucleation score came to 0.622 ± 0.76.

In turn, FIIKYK yielded an amyloid nucleation score of 2.26 ± 0.19.

The substance FILCMLMVSAGLFEQEALRY showed an amyloid nucleation score of 0.506 ± 0.24.

Consider FINNNVEDYFISL, for which the amyloid nucleation score was 0.712 ± 0.41.

For the substance FIRGDANSLLHYLSDCVRE, the amyloid nucleation score worked out at 1.37 ± 0.9.

With FIRSVKRGARWSGGNFFIEG, the amyloid nucleation score entry is “inactive”.

In turn, FIRWKLVYYDIMKCPSCSHH displayed an amyloid nucleation score of -0.187 ± 0.61.

FISAACEEPVTFMGNYGGYG displayed an amyloid nucleation score of 0.02 ± 0.53.

Substance FISHGRIVHGEDGAVLFVSG had an amyloid nucleation score of 0.277 ± 1.4.

The substance FISNVWPYGESRFEESNPCL returned an amyloid nucleation score of 0.094 ± 0.52.

Turning to FISSNDIYGGATGWDSSDVT, the amyloid nucleation score is -0.743 ± 0.36.

Take FIWGLKLVDFSLPVSAL: the amyloid nucleation score is -0.411 ± 0.51.

FKEMIAWPWLESSSGEFTIV came in with an amyloid nucleation score of 0.645 ± 0.62.

FKESLGFMFMHDMSWDGLLV showed an amyloid nucleation score of 0.224 ± 0.7.

The substance FKRFWLR returned an amyloid nucleation score of 0.166 ± 0.73.

Take FKSVGLTWALRGRINKTYLE: the amyloid nucleation score was determined as 0.195 ± 0.21.

FKTYYLATLDTNS displayed an amyloid nucleation score of -1.73 ± 2.4.

On to FKVKIVKCLGMFLLTIASLL, for which the amyloid nucleation score was 1.07 ± 0.39.

For the substance FKVPVYGWLWETTVVSADTS, the amyloid nucleation score was -0.131 ± 0.37.

For FLFLYNVGVVIRSGYMFLRS, the amyloid nucleation score is 0.088 ± 0.93.

FLFRFQKCLFNCFVLGLVSR returned an amyloid nucleation score of -0.206 ± 0.53.

Turning to FLGLLLCCLVRAPLPFGMRA, the amyloid nucleation score is -0.459 ± 0.56.

The substance FLHNSWTGGGGTYGICKMRV gave an amyloid nucleation score of -0.368 ± 0.65.

In turn, FLHVPVLFSFTHCFMG showed an amyloid nucleation score of 3.03 ± 0.13.

As to FLLCVSHLELSY, the amyloid nucleation score came to 0.968 ± 0.49.

FLMLRAYESMARFYDVLWIG returned an amyloid nucleation score of 0.088 ± 0.37.

With FLSSCSMFMGRPWFSCYRVR, the amyloid nucleation score was -1.02 ± 2.4.

Regarding FLYWSHSYFLITWFRCVLEI, the amyloid nucleation score entry is “inactive”.

On to FMALLQLAGVIWVSLTVLTP, for which the amyloid nucleation score amounted to 0.08 ± 0.62.

FMASTRRFPLSLMRRAHVYL gave an amyloid nucleation score of -0.182 ± 1.3.

FMDTAMTSFGSLSW showed an amyloid nucleation score of -0.317 ± 0.55.

For the substance FMFDNYIGRSGSGGCSGDGR, the amyloid nucleation score was -0.417 ± 1.2.

Turning to FMHAFRNQRLNLAGLGFRVA, the amyloid nucleation score was 0.573 ± 0.62.

The substance FMLCNFLVVIYSGSR displayed an amyloid nucleation score of 5.82 ± 0.063.

The substance FMMSNWTNLNSWKTL gave an amyloid nucleation score of -0.122 ± 0.23.

On to FMPMNVSNKTSELRYFCNGP, for which the amyloid nucleation score came to 0.417 ± 0.74.

In turn, FMPRSLHLTTWLQSNAFNNA displayed an amyloid nucleation score of 3.22 ± 0.068.

FNGRVRGYHSLDNVVHGRLY: the amyloid nucleation score amounted to 0.522 ± 0.58.

FNSGNQ registered an amyloid nucleation score of -0.442 ± 0.37.

FNTCMSLFSNCFPNCWMHFK yielded an amyloid nucleation score of 0.428 ± 0.61.

Consider FNVISVWSPWQW, for which the amyloid nucleation score was determined as 6.3 ± 0.064.

On to FNVLCPRRQNLSGVELD, for which the amyloid nucleation score was -0.02 ± 0.45.

FNYYITFHCTCELECRGYCT yielded an amyloid nucleation score of 7.841 ± 0.05.

For the substance FPDYQVLLQCYLN, the amyloid nucleation score turned out to be 0.418 ± 0.38.

Take FPENGLRSFSCPLVH: the amyloid nucleation score came to 0.382 ± 0.66.

On to FPESNKLMV, for which the amyloid nucleation score was determined as 1.06 ± 0.65.

Regarding FPLGSFIDLQRDMGIN, the amyloid nucleation score was 0.53 ± 0.4.

Substance FPNALDYLYVV had an amyloid nucleation score of -0.243 ± 0.22.

Turning to FPSARYNNLT, the amyloid nucleation score was 0.655 ± 0.57.

With FPTFLPQWTGKCFALRCGRW, the amyloid nucleation score result is “inactive”.

As for FQHLNMVTAFSDSRGIPYML, the amyloid nucleation score stood at 1.05 ± 0.38.

In the case of FQIRSRISIDCVMVNRDELS, the amyloid nucleation score was 1.41 ± 0.18.

FQSDYRRRMFVMSD: the amyloid nucleation score is -1.03 ± 1.4.

FQSLGTFLDIQLCGHNLVAE: the amyloid nucleation score came to 0.537 ± 0.34.

FQYLNLGISRHSARWTCTFL registered an amyloid nucleation score of -0.698 ± 1.4.

Consider FQYTACIN, for which the amyloid nucleation score is 1.08 ± 0.57.

Consider FRHYTANYWYISRRRRMLSV, for which the amyloid nucleation score result was “inactive”.

The substance FRIAGSKRCFCID showed an amyloid nucleation score of 0.463 ± 0.31.

With FRKGDILRTFSMFKSKYTVG, the amyloid nucleation score is 0.839 ± 0.65.

FRLEGRCSLLFCTCRLDV returned an amyloid nucleation score of 0.561 ± 0.45.

The substance FRLVNIIR returned an amyloid nucleation score of 0.317 ± 0.33.

In turn, FRMCCNYYICHLDGVILIG registered an amyloid nucleation score of 1.65 ± 0.26.

The substance FRRLRMLLILASKFGVD displayed an amyloid nucleation score of -0.392 ± 0.34.

Substance FRRVVNVSCTLTHSWIILLM gave an amyloid nucleation score of 0.042 ± 1.1.

On to FRSPN, for which the amyloid nucleation score is -0.285 ± 0.58.

Regarding FRWYRLRIIKSFSGNSASVR, the amyloid nucleation score worked out at 3.1 ± 0.074.

In the case of FRYKDGCSFSTAVDYSCRMF, the amyloid nucleation score came to 1.06 ± 0.23.

As for FSAIMVRC, the amyloid nucleation score result was “inactive”.

With FSASFNGLAAGRLASR, the amyloid nucleation score is -0.105 ± 1.3.

Turning to FSCFLMEISKGRGH, the amyloid nucleation score was 4.18 ± 0.11.

FSGCQSARGKLWVSDWEL: the amyloid nucleation score result is “inactive”.

As to FSGLCRSTPGI, the amyloid nucleation score was -0.469 ± 0.32.

With FSHGFMITICHWEMTKETDW, the amyloid nucleation score was -0.476 ± 0.37.

In turn, FSLFTWSWFR returned an amyloid nucleation score of 0.625 ± 0.42.

FSMSILENRYTTFELSGAYQ gave an amyloid nucleation score of -0.722 ± 0.66.

In turn, FSPSLVMHSATSLRNVGLSA came in with an amyloid nucleation score of -0.93 ± 2.4.

In turn, FSRPWWRSWHSFFSHDEKTI had an amyloid nucleation score of 0.282 ± 0.69.

As to FSRYLPKLNSLAKDSIPVGR, the amyloid nucleation score entry was “inactive”.

In the case of FSSEVRVWVWNCCFNRFSCI, the amyloid nucleation score is 4.74 ± 0.061.

As to FSSGVILSGRRRSLK, the amyloid nucleation score is -0.437 ± 0.49.

In turn, FSSQYQMSAGVF yielded an amyloid nucleation score of -0.013 ± 0.56.
